Sequences and labels used below:
B1: Azoarcus group I ribozyme (parent)
chain: GUGCCUUGCGCCGGGAAACCACGCAAGGGAUGGUGUCAAAUUCGGCGAAACCUAAGCGCCCGCCCGGGCGUAUGGCAACGCCGAGCCAAGCUUCGGCGCCUGCGCCGAUGAAGGUGUAGAGACUAGACGGCACCCACCUAAGGCAAACGCUAUGGUGAAGGCAUAGUCCAGGGAGUGGCGAAAGUCACACAAACCGG

In the data set the parent is B1. Kind of data set: reverse-splicing fitness (ratio to wild type); higher = more active; in vitro selection; Mg2+ level not given. The essentials: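 An in vitro group I ribozyme library with randomized positions was T7-transcribed and gel-purified. In triplicate, 10 pmol RNA in EPPS pH 7.5 was reacted with 50 pmoles of a 30-nt RNA substrate for 1 h at 37 °C across several added MgCl2 levels (1–48 mM), then stopped with EDTA. Products were reverse transcribed from a substrate-complementary primer, PCR-amplified and sequenced (HiSeq 4000). Fitness is a variant's read proportion after selection over that before, normalised to wild type.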
With C82G A120U A145G, the reverse-splicing fitness amounted to 0.229.

Take A111C A120G A145G C169A U176C: the reverse-splicing fitness was 0.0401.

Turning to C82A A111C A120U A145C C150G C169G U176A, the reverse-splicing fitness was 0.00291.

As for C82U A111G A120C A145C C150A C169U, the reverse-splicing fitness was determined as 0.00924.

For the variant C82A A111C A145G U176A, the reverse-splicing fitness is 0.0768.

As to A111G A120G A145U C150G C169G, the reverse-splicing fitness is 0.0297.

Consider A111U A120C A145C C169A U176A, for which the reverse-splicing fitness was found to be 0.00934.

As for C82G A111C A120U A145C C150U C169A U176A, the reverse-splicing fitness was 0.00238.

Consider A111C A145U C150G C169U, for which the reverse-splicing fitness is 0.0178.

Turning to C82A A120U A145U C150U C169A U176G, the reverse-splicing fitness was found to be 0.00171.

In the case of A111U A145C C150A C169A U176C, the reverse-splicing fitness was determined as 0.00656.

Regarding C82U C150G C169U U176G, the reverse-splicing fitness amounted to 0.0055.

Consider C82U A120G C150U C169A, for which the reverse-splicing fitness was determined as 0.0144.

Take A111G A145G C169G U176G: the reverse-splicing fitness turned out to be 0.00638.

With C82A A111G A120C A145G C150A C169U U176G, the reverse-splicing fitness came out at 0.00842.

Consider C82G A145C C150A C169A U176C, for which the reverse-splicing fitness came to 0.0049.

For the variant C150A C169G U176G, the reverse-splicing fitness was determined as 0.00565.

As for A111C A120U C150A C169G U176A, the reverse-splicing fitness was found to be 0.00448.

C82A A111U A145C C150U C169U U176G: the reverse-splicing fitness was determined as 0.00661.

Regarding A111G A120G A145U C150G, the reverse-splicing fitness turned out to be 0.0319.

Regarding A111U A145C C150G C169U U176A, the reverse-splicing fitness worked out at 0.00903.

Turning to A111G A145U C169G, the reverse-splicing fitness worked out at 0.13.

With C82U A145C U176C, the reverse-splicing fitness is 0.449.

A111G A145C C150G C169A U176A: the reverse-splicing fitness came to 0.0077.

Consider A111U A120G A145C C150G C169U U176A, for which the reverse-splicing fitness was found to be 0.0163.

For the variant C82G A111C A145G C150A, the reverse-splicing fitness came out at 0.0364.

In the case of C82G A111U A145U C150G C169A, the reverse-splicing fitness was 0.00951.

With C82U A111U A120C C150G C169A, the reverse-splicing fitness was determined as 0.00864.

On to C82A A111U A120U A145C C150G C169A U176C, for which the reverse-splicing fitness was 0.00302.

On to C82G A120U U176A, for which the reverse-splicing fitness came out at 0.0729.

C82U A111C A120U A145C C150G U176G: the reverse-splicing fitness stood at 0.00239.

For the variant C82A A111C A145C C150G C169G U176A, the reverse-splicing fitness came to 0.00778.

Take C82U A111C A120C A145C C150U C169G U176A: the reverse-splicing fitness turned out to be 0.0188.

For C82U A120U A145G C150A, the reverse-splicing fitness came out at 0.0257.

In the case of A111C A120C A145G C150G C169G, the reverse-splicing fitness was found to be 0.00738.

On to A111U A145G C150G U176A, for which the reverse-splicing fitness is 0.0997.

In the case of A120U C150A C169G, the reverse-splicing fitness stood at 0.0291.

In the case of C82A A111G A120C A145G U176A, the reverse-splicing fitness was found to be 0.0183.

Take A111U A120U C150U C169U U176A: the reverse-splicing fitness turned out to be 0.0088.

For C82A A111C A120C C150U C169U U176A, the reverse-splicing fitness stood at 0.0177.

Take C82U A111G C150G C169A U176A: the reverse-splicing fitness was 0.00962.

On to C82A A111C A120U A145G C150A C169A U176G, for which the reverse-splicing fitness stood at 0.00349.

With C82A A111U A120C A145U C150A C169G U176A, the reverse-splicing fitness was determined as 0.0219.

For C82A A111U A120U A145U C150U C169A U176A, the reverse-splicing fitness is 0.00366.

For the variant C82A A111G A120U A145G C150A, the reverse-splicing fitness came to 0.00991.

Regarding C82G A111C A120C A145G C150G U176A, the reverse-splicing fitness is 0.00652.

On to C82U A145G C150G C169G U176C, for which the reverse-splicing fitness turned out to be 0.0124.

On to A111G A145C C150U C169A, for which the reverse-splicing fitness came out at 0.0167.

On to C82A A111G A120U A145U C150A C169U, for which the reverse-splicing fitness was 0.00275.

With C82G A111G C169G, the reverse-splicing fitness was 0.00859.

As for C82A A111U A120U A145C C169U U176G, the reverse-splicing fitness is 0.00193.

Take C82G A111C A120C A145G U176C: the reverse-splicing fitness is 0.0314.

C82G A111C A145C C150A C169U U176A: the reverse-splicing fitness was 0.0135.

In the case of C82G A111U A120U C150U C169A, the reverse-splicing fitness is 0.0056.

C82U A145C C169U: the reverse-splicing fitness turned out to be 0.0123.

With A111C A120C A145C C150A C169G U176A, the reverse-splicing fitness was found to be 0.0246.

Regarding C82G A111C A120C A145G C150G C169G U176G, the reverse-splicing fitness was determined as 0.0062.

With C82A A111G A120G C150A C169G, the reverse-splicing fitness stood at 0.00987.

Regarding A111C A120G A145C C150G C169G U176G, the reverse-splicing fitness was 0.00434.

As for C82G A111G A145C C169G U176A, the reverse-splicing fitness came out at 0.022.

As to C82G A111C A145C C150U C169U, the reverse-splicing fitness turned out to be 0.0113.

Turning to C82A A120C A145U C150G C169A U176G, the reverse-splicing fitness turned out to be 0.00455.

C82G A111C A120G A145C C169G U176A: the reverse-splicing fitness is 0.0233.

Turning to C82G A111G A120U A145U C150U C169U U176C, the reverse-splicing fitness was found to be 0.00263.

Turning to C82U A111U A120G A145C U176G, the reverse-splicing fitness amounted to 0.00374.

On to C82A A111U A120U A145G U176C, for which the reverse-splicing fitness amounted to 0.0114.

With A111C A120C A145G C169A U176A, the reverse-splicing fitness is 0.0222.

Consider C82A A111U A120C A145U C150G C169U U176A, for which the reverse-splicing fitness stood at 0.00711.

As to C82A A120G A145G C150U U176C, the reverse-splicing fitness worked out at 0.0178.

With C82U A111G A120C A145G C150A C169G U176C, the reverse-splicing fitness worked out at 0.0213.

On to A120U A145U C150U C169G, for which the reverse-splicing fitness came out at 0.166.

C82U A111U A145G C150A C169U U176A: the reverse-splicing fitness was found to be 0.016.

On to C82U A111U A120U A145C C169G U176A, for which the reverse-splicing fitness turned out to be 0.00238.

For C82A A111C A120C A145U C150A U176G, the reverse-splicing fitness was 0.00638.

For the variant C82G A111G A120G C169U, the reverse-splicing fitness stood at 0.0144.

With C82G A111U A120U A145G C169G, the reverse-splicing fitness turned out to be 0.00479.

Consider C82U A111C A120C A145C C150G U176C, for which the reverse-splicing fitness is 0.00717.

In the case of C82G A145C C150A U176G, the reverse-splicing fitness was found to be 0.0117.

With C82G A111U A120G A145C C150U C169U, the reverse-splicing fitness came out at 0.00738.

On to C82A A111G A120G A145G C169A U176C, for which the reverse-splicing fitness is 0.0254.

Take A111U A120C A145U C150G U176C: the reverse-splicing fitness turned out to be 0.0375.

With A111G A120U A145G C169G, the reverse-splicing fitness was found to be 0.087.

On to C82A A120C A145G C150G C169U U176C, for which the reverse-splicing fitness came out at 0.015.

Consider C82A A111G A145U C150G U176A, for which the reverse-splicing fitness is 0.00973.

The values are drawn from the RNAGym collection of RNA variant scans (doi:10.1093/molbev/msab373).
